Reference: patent publication US20220056123A1, “USE OF IL-1BETA BINDING ANTIBODIES” (NOVARTIS AG, priority 2018, published 2022)
Read-outs that look alike come from different tables or passages of the source.

Assays:
mouse IL-1β = mouse IL-1β (Mus musculus, UniProt P10749); assay: Cross-reactivity with mouse IL-1β; format: binding
[1] = tested on: locally advanced or metastatic non-small cell lung cancer; design: species or system human; settings: in vivo
Excerpt: A Randomized, Double-Blind Phase III Study of Pembrolizumab+Platinum-based Chemotherapy with or without Canakinumab as First Line Therapy for Locally Advanced or Metastatic Non-squamous and Squamous Non-small Cell Lung Cancer Subjects The study population includes adult patients with first-line locally advanced stage IIIB (not eligible for definitive chemo-radiation therapy) or stage IV metastatic non-small cell lung cancer (NSCLC), without EGFR mutations or ALK translocation. Only patients who have not previously been treated with any systemic anti-cancer therapy are included, with the exception of neo-adjuvant or adjuvant therapy (if relapse has occurred more than 12 months from the end of that therapy). In addition, subjects should be without known B-RAF mutation or ROS-1 genetic aberrations.
The non-randomized safety run-in portion of the study will be done with canakinumab in combination with pembrolizumab and three platinum-based doublet chemotherapies: carboplatin+pemetrexed (patients with non-squamous tumors), cisplatin+pemetrexed (patients with non-squamous tumors), and carboplatin+paclitaxel (patients with either squamous or non-squamous tumor). Non-squamous tumor histology subjects who receive paclitaxel-carboplatin with pembrolizumab in the safety-run-in and achieve stable disease (SD) or better will receive pemetrexed maintenance after completing induction. […] The secondary objectives are to characterize safety and tolerability, pharmacokinetics, immunogenicity, and to assess the preliminary clinical anti-tumor activity. The analysis to determine the recommended phase III dose regimen (RP3R) will be conducted when at least 6 evaluable patients in each of the 3 treatment cohorts have been observed for dose limiting toxicity (DLT) for at least 42 days at the starting dose level to establish the RP3R.
At data cut-off, 6 patients (3 in A, 2 in B and 1 in C) of the 30 treated patients, discontinued the study treatment. The primary reason for treatment discontinuation was PD (3 patients in A and 1 patient each in B and C)

[2] = tested on: patients with atherosclerosis who had had a myocardial infarction; settings: compared with placebo, median follow-up 3.7 years, cited from earlier work
[3] = CANTOS immunogenicity, bridging ECLIA for anti-drug antibodies; format: in vivo, human
Procedure: During the CANTOS trial, blood samples for immunogenicity assessments were collected at baseline Month 12, 24 and end of study visit. Immunogenicity was analyzed using a bridging immunogenicity electrochemiluminescence immunoassay (ECLIA). Samples were pre-treated with acetic acid and neutralized in buffer containing labeled drug (biotinylated ACZ885 and sulfo-TAG (Ruthenium) labeled ACZ885). Anti-canakinumab antibodies (anti-drug antibodies) were captured by a combination of biotinylated and sulfo-TAG labeled forms of ACZ885. Complex formation was subsequently detected by electrochemiluminescence by capturing complexes on Mesoscale Discovery Streptavidin (MSD) plates.

MDA-MB231 = assay: TNBC MDA-MB231 xenograft in humanized BLT mice; format: in vivo, humanized mouse; settings: single agent arm, compared to isotype control
Procedure: • I. Tumor models: The role of IL-1β in tumor immunity and efficacy of IL-1β blocking antibodies were tested in the following preclinical models: • Xenograft tumors in humanized mouse models: NSCLC (H358), TNBC (MDA-MB231) and CRC (SW480) • Syngeneic tumor models: TNBC (4T1) and lung (LL-2) cancer • II. […] Combination treatments include chemotherapeutic agent, docetaxel (6.25 mg/Kg QW IV), PD-1 pathway inhibitors (anti-human PD-1, pembrolizumab 10 mg/Kg Q5D IP or anti-mouse PD-1, clone 1D2 10 mg/Kg QW IP) and anti-mouse VEGF blocking antibody (clone 4G3, 5 mg/Kg Q5D) were used in combination with anti-IL-1β antibody. Appropriate isotype controls were used. In all experiments, dosing was initiated after tumor implantation. • III. Experimental readouts: activity of therapeutic agents in preclinical models were assessed by the following: • Tumor volume was determined by measurement with calipers throughout the course of the study. Tumor weights in milligrams were determined at end of study • Immunohistochemistry analysis was performed on FFPE NSCLC (H358) xenograft tissue • Changes in immune populations in peripheral blood in CRC (SW480) xenograft humanized model and tumors in syngeneic models (4T1 and LL-2) were assessed by flow cytometry using markers for T cell, myeloid populations

Sequence of mouse IL-1β (P10749 118-269): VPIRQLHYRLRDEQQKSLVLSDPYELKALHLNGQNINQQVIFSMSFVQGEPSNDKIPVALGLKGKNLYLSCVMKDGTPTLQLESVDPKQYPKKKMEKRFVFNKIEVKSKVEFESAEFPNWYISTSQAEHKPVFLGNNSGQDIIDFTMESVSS

Question: Which results are given for “canakinumab: high-affinity, fully human monoclonal antibody of the IgG1/k to interleukin-1β”?
Answer: cross-reactivity with mouse IL-1β (mouse IL-1β): does not cross-react to murine IL-1β; cross-reactivity with mouse IL-1β (mouse IL-1β; listed as Canakinumab): does not cross-react with mouse IL-1β; AEs leading to discontinuation of one of the study drugs [1]: 3 patients; AEs leading to dose interruption: decreased neutrophil count [1]: 3 patients; AEs leading to dose interruption: decreased white blood cell count [1]: 1 patient; AEs leading to dose interruption: neutropenia [1]: 1 patient; AEs leading to dose reduction: myalgia [1]: 1 patients; AEs leading to dose reduction: peripheral neuropathy [1]: 2 patients; Grade 5 adverse events [1]: No Grade 5 adverse events were observed; patients with dose limiting toxicity (DLT) [1]: 1 patient; patients with grade 3 AEs [1]: 13 patients; patients with grade 4 AE [1]: 1 patient; reductions in concentrations of hsCRP ([2]; dose-dependent (50, 150, 300 mg sc every 3 months)): 26-41%; reductions in concentrations of interleukin 6 ([2]; dose-dependent): 25-43%; patients with treatment-emergent anti-canakinumab antibodies ([3]; canakinumab 150 mg group): 0.4%; patients with treatment-emergent anti-canakinumab antibodies ([3]; canakinumab 300 mg group): 0.3%; association of anti-drug antibodies with AEs or hsCRP response ([3]; in vivo): not associated with immunogenicity related AEs or altered hsCRP response; animals with slower tumor growth (MDA-MB231): 100 % of animals
